Measured values from article PMC4423210, “Ubiquitination of the Dishevelled DIX domain blocks its head-to-tail polymerization” (Nature Communications, 2015).

What was measured:
[1] = molecular target: the molecule itself; assay: SEC-MALS; loading concentration 10 μM (reduced ∼10x during SEC); Superdex-75 HR10/300, 20 mM Tris pH 7.4, 200 mM NaCl, 0.01% NaN3; self-association, apparent molecularity
[2] = molecular target: the molecule itself; assay: SEC-MALS; loading concentration 50 μM (reduced ∼10x during SEC); Superdex-75 HR10/300, 20 mM Tris pH 7.4, 200 mM NaCl, 0.01% NaN3; self-association, apparent molecularity
[3] = molecular target: the molecule itself; assay: SEC-MALS; highest loading concentration (235 μM DIX, ∼160 μM DIX54-Ub or DIX58-Ub; reduced ∼10x during SEC); Superdex-75 HR10/300, 20 mM Tris pH 7.4, 200 mM NaCl, 0.01% NaN3; self-association, apparent molecularity
[4] = molecular target: the molecule itself; assay: crystal structure; hDvl2 DIX-Y27D, 40% PEG400, 0.1 M Tris pH 8.5, 0.2 M LiSO4, 19 °C; helical filament in the crystal

Row | Protein | stoichiometry N [1] | stoichiometry N [2] | stoichiometry N [3] [monomers] | binding result [4]
1 | DIX domain of human Dvl2 (hDvl2), unmodified (domain or fragment, UniProt O14641 11-93, looked up, DIX domain of human Dishevelled-2 (hDvl2); Codon-optimised synthetic gene in pCDF-PylT; PDB 4WIP holds the Y27D mutant of the hDvl2 DIX domain; also called unmodified DIX; hDvl2 DIX domain; not shown: His6, N-terminal, cleaved) VGETKVIYHLDEEETPYLVKIPVPAERITLGDFKSVLQRPAGAKYFFKSMDQDFGVVKEEISDDNARLPCFNGRVVSWLVSSD | 2 | 3 | > 84 | 
2 | hDvl2 DIX domain bearing the polymerization-deficient mutation M4 (Y27D) (domain or fragment, human, DIX domain of human Dishevelled-2 (hDvl2) with Y27D; Crystallised at 50 mg/ml; forms a helical head-to-tail filament in the crystal; also called hDvl2 DIX-Y27D; source: E. coli BL21-CodonPlus(DE3)-RIL, purified (Ni-NTA, TEV, gel filtration, anion exchange); not shown: 6xHis, N-terminal, cleaved) GETKVIYHLDEEETPDLVKIPVPAERITLGDFKSVLQRPAGAKYFFKSMDQDFGVVKEEISDDNARLPCFNGRVVSWLVSSDNPQPEMAPPVHEPR |  |  |  | binds
